Laboratory results from US20130217572A1, “SPECIFIC DELIVERY OF AGROCHEMICALS” (VRIJE UNIVERSITEIT BRUSSEL, priority 2010, published 2013).

Experiments:
gum arabic = experiment: VHH binding to gum arabic in ELISA; parameters: species or system acacia tree
Experimental: Titration of VHH antibody fragments was performed on ELISA plates (Maxisorp, Nunc) coated with 100 μl per well 100 μg/ml gum arabic in 50 mM carbonate pH9.6. Plates were coated at 4° C. overnight and coating was continued at room temperature for 1 hour on the next day. Plates were washed three times with PBS/0.05%-TWEEN®-20 and blocked with 5% skimmed milk in PBS for 1 hour. Four-fold serial dilutions of purified VHH antibody fragments were prepared in 1% MPBS/0.05%-TWEEN®-20 in polypropylene 96-well plates. Antibody concentrations ranged from 3 μg/ml to 12 ng/ml. Antibody dilutions were transferred to the gum arabic-coated plates and VHH antibody fragments were allowed to bind for 1 hour at room temperature. Bound VHH were detected with sequential incubations with monoclonal mouse anti-histidine antibodies (Abd Serotec) and rabbit anti-mouse IgG whole molecule antibodies conjugated with alkaline phosphatase (RaM/AP) (Sigma) in 1% MPBS/0.05%-TWEEN®-20. Unbound antibodies were removed by washing three times with PBS/0.05%-TWEEN®-20 after each antibody incubation. The plates were washed an additional two times with PBS and 100 μl pNPP disodium hexahydrate substrate (Sigma) was added to each well. The absorbance at 405 nm was measured and plotted as function of antibody concentration (see Table 1).

potato lectin = biological target: T1, potato lectin (Solanum tuberosum, UniProt Q9S8M0); experiment: VHH binding to potato lectin in ELISA; settings: blank wells; VHH 3 μg/ml
T1 sequence (Q9S8M0 23-323): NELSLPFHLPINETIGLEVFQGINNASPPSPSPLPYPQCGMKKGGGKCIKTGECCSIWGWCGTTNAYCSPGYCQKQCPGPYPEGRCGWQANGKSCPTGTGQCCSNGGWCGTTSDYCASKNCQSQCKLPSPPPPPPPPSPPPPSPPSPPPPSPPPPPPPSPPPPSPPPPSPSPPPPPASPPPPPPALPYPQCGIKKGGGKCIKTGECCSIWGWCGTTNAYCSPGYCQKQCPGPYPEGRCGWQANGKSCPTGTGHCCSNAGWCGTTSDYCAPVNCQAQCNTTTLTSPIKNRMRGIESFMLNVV
Experimental: (§1) ELISA plates (Maxisorp, Nunc) coated with 100 μl per well 100 μg/ml potato lectin (Sigma) in PBS were coated at 4° C. overnight and coating was continued at room temperature for 1 hour on the next day. Plates were washed three times with PBS/0.05%-TWEEN®-20 and blocked with 5% skimmed milk in PBS for 1 hour. VHH (3 μg/ml) were transferred to the potato lectin-coated plates and VHH antibody fragments were allowed to bind for 1 hour at room temperature. Bound VHH were detected with sequential incubations with monoclonal mouse anti-histidine antibodies (Abd Serotec) and rabbit anti-mouse IgG whole molecule antibodies conjugated with alkaline phosphatase (RaM/AP) (Sigma) in 1% MPBS/0.05%-TWEEN®-20. Unbound antibodies were removed by washing three times with PBS/0.05%-TWEEN®-20 after each antibody incubation. The plates were washed an additional two times with PBS and 100 μl pNPP disodium hexahydrate substrate (Sigma) was added to each well and the absorbance at 405 nm was measured (see Table 2).

potato lectin (Sigma) = biological target: T2, potato lectin (Sigma) (potato, UniProt Q9S8M0 23-323); experiment: ELISA, potato lectin coated at 100 ug/ml, VHH at 3 ug/ml, anti-histidine detection
T2 construct: Bought glycoprotein, coated on ELISA plates
T2 sequence (looked up): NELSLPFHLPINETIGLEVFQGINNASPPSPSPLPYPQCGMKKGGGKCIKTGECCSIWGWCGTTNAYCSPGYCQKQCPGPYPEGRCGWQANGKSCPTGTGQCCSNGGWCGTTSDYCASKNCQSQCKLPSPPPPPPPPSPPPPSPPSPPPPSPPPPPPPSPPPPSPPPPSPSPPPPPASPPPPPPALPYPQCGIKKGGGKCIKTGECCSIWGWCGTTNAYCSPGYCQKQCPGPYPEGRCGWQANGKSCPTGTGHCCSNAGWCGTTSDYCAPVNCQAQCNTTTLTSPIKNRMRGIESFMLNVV
Experimental: as §1

potato leaf surface = experiment: VHH binding to leaf discs (microscopy); parameters: species or system potato (variety Désirée); settings: 5 μg/ml in PBS, anti-histidine Alexa-488 detection
Experimental: VHH binding to non-fixed leaf discs of potato (variety Désirée), black nightshade, grass, wheat or azalea was investigated. For comparison, binding of CBM3a to non-fixed leaf discs of potato (variety Désirée) was analyzed in parallel. Leaf discs were prepared by punching a fresh potato leaf with a 5 mm belt hole puncher tool. Leaf discs were put immediately in wells of a 96-well plate containing 200 μl per well 5% MPBS or PBS, and incubated for 30 minutes. Leaf discs were transferred to solutions containing 5 μg/ml VHH antibody fragment, respectively 5 μg/ml CBM3a in 2% MPBS or PBS and incubated for 60-90 minutes. Unbound VHH or CBM3a proteins were removed by washing three times with 2% MPBS or PBS. Bound VHH or CBM3a proteins were detected with incubation with monoclonal mouse anti-histidine antibodies directly conjugated with Alexa-488 fluorescent dye (Abd Serotec) in 1% MPBS for 1 hour. Unbound antibodies were removed by washing three times with PBS. Leaf discs were put on glass slides, covered with cover slips, and analyzed by microscopy or on a macrozoom microscope system (Nikon) or a SP5 confocal microscope system (Leica).

[1] = [VHH] 0.0117188 μg/ml (0.78125 nM), gum arabic 100 μg/ml
[2] = [VHH] 0.04688 μg/ml (3.125 nM), gum arabic 100 μg/ml
[3] = [VHH] 0.1875 μg/ml (12.5 nM), gum arabic 100 μg/ml
[4] = [VHH] 0.75 μg/ml (50 nM), gum arabic 100 μg/ml
[5] = [VHH] 3 μg/ml (200 nM), gum arabic 100 μg/ml
[6] = [VHH] 3 μg/ml (200 nM), no gum arabic coat (−)
[7] = Table 2, gum arabic coat, VHH 3 μg/ml

B1: VHH5E5: plant-binding VHH, listed among SEQ ID NO:1-42 (protein, listed as Lama glama)
VHH: QVQLQESGGGLVQPGGSLTLSCTASGFAMRRFGIGWFRQVVGKEREGVSCSNVHDGSTYYANYVKGRFTIVRDDTKNMLYLHMNSLRAEDTGVYSCATTDCEATAWGTYRGYFGQGTQVTVSS
modifications: 5E5
Gum arabic; [1]
  absorbance at 405 nm: 0.074
Gum arabic; [2]
  absorbance at 405 nm: 0.088
Gum arabic; [3]
  absorbance at 405 nm: 0.185
Gum arabic; [4]
  absorbance at 405 nm: 0.569
Gum arabic; [5]
  absorbance at 405 nm: 1.194
Gum arabic; [6]
  absorbance at 405 nm: 0.073

B2: VHH 5C4 (VHH)
VHH: QVQLQESGGGLVQPGGSLRLSCAASGFSLRYFGIGWFRQVAGKEREPVSCSNVRDGNTYYADSVKGRFTISRDNVRNTLYLQMNSLKPEDTAVYSCATTDCEATTWGTYRGYFGQGTQVTVSS
notes: Hexahistidine-tagged
Potato lectin
  absorbance at 405 nm: 0.071
Gum arabic; [7]
  absorbance at 405 nm: 0.873
Gum arabic; [1]
  absorbance at 405 nm: 0.166
Gum arabic; [2]
  absorbance at 405 nm: 0.386
Gum arabic; [3]
  absorbance at 405 nm: 1.036
Gum arabic; [4]
  absorbance at 405 nm: 1.710
Gum arabic; [5]
  absorbance at 405 nm: 2.010
Gum arabic; [6]
  absorbance at 405 nm: 0.082
Potato lectin (Sigma)
  absorbance at 405 nm: 4

B3: VHH 5G5 (VHH)
VHH: QVQLQESGGGLVQPGGSLRLSCAASGFSLRYFGIGWFRQAAGKEREGISCSNVRDGNTYYADSVKGRFTISRDNVRNMLYLQMNNLKPDDTAVYSCATTDCEATTWGTYRGYFGQGTQVTVSS
notes: Hexahistidine-tagged
Potato lectin
  absorbance at 405 nm: 0.073
Gum arabic; [7]
  absorbance at 405 nm: 0.751
Gum arabic; [1]
  absorbance at 405 nm: 0.125
Gum arabic; [2]
  absorbance at 405 nm: 0.317
Gum arabic; [3]
  absorbance at 405 nm: 0.906
Gum arabic; [4]
  absorbance at 405 nm: 1.611
Gum arabic; [5]
  absorbance at 405 nm: 1.966
Gum arabic; [6]
  absorbance at 405 nm: 0.077
Potato lectin (Sigma)
  absorbance at 405 nm: 4

B4: VHH 5D4 (VHH)
VHH: QVQLQESGGGLVQPGGSLRLSCAASGFDMRRFGIGWFRQVAGKEREGVSCSNVHDGTTYYTNDVKGRFTIVRDNTKNMLYLQMNKLRPEDTAVYSCATTDCEATAWGTYRGYFGQGTQVTVSS
notes: Hexahistidine-tagged
Potato lectin
  absorbance at 405 nm: 0.072
Gum arabic; [7]
  absorbance at 405 nm: 0.530
Gum arabic; [1]
  absorbance at 405 nm: 0.087
Gum arabic; [2]
  absorbance at 405 nm: 0.134
Gum arabic; [3]
  absorbance at 405 nm: 0.378
Gum arabic; [4]
  absorbance at 405 nm: 0.840
Gum arabic; [5]
  absorbance at 405 nm: 1.280
Gum arabic; [6]
  absorbance at 405 nm: 0.075
Potato leaf surface
  binding to native potato leaf surface: binding leaf surface, stomata, glandular trichomes, and leaf hairs
Potato leaf surface; listed as 5D4
  binding to native potato leaf surface: clearly binding to trichomes, stomata and cuticle
Potato lectin (Sigma)
  absorbance at 405 nm: 4

B5: VHH7A2: plant-binding VHH, listed among SEQ ID NO:1-42 (protein, listed as Lama glama)
VHH: QVQLQESGGGSVHPGGSLTLSCLASGFSLSNYGMGWFRQAPGKEREAVSCTSVPNGHIYYAESVKGRFTIVRDNAGNSVYLQMNSLKPEDAANYFCATTDCEAAHWGTWVNYYGQGTQVTVSS
modifications: 7A2
Gum arabic; [1]
  absorbance at 405 nm: 0.088
Gum arabic; [2]
  absorbance at 405 nm: 0.101
Gum arabic; [3]
  absorbance at 405 nm: 0.216
Gum arabic; [4]
  absorbance at 405 nm: 0.677
Gum arabic; [5]
  absorbance at 405 nm: 1.391
Gum arabic; [6]
  absorbance at 405 nm: 0.075

B6: VHH5F5: plant-binding VHH, listed among SEQ ID NO:1-42 (protein, listed as Lama glama)
VHH: QVQLQESGGGLVQPGGSLRLSCAASGFPLGLYGIGWFRQAPGKEREAVSCDSVDDGSTNYLDSVKGRFTISRDNAKNMVYLQMNSLKPEDTAVYYCATTDCDAKAWGTWTNYRGQGTQVTVSS
modifications: 5F5
Gum arabic; [1]
  absorbance at 405 nm: 0.093
Gum arabic; [2]
  absorbance at 405 nm: 0.100
Gum arabic; [3]
  absorbance at 405 nm: 0.191
Gum arabic; [4]
  absorbance at 405 nm: 0.476
Gum arabic; [5]
  absorbance at 405 nm: 0.959
Gum arabic; [6]
  absorbance at 405 nm: 0.090

B7: VHH 7D2 (VHH)
VHH: QVQLQESGGGLVQPGRSLKVACAAAGFSLRYYGIGWFRQAPGKEREAVSCTSANDGSTYYRDSVRGRFTISRDDGKNTVYLQMNRLKPEDTAVYYCATTDCDATSWGTWINYYGQGTQVTVSS
notes: Hexahistidine-tagged
Potato lectin
  absorbance at 405 nm: 0.072
Gum arabic; [7]
  absorbance at 405 nm: 0.274
Gum arabic; [1]
  absorbance at 405 nm: 0.083
Gum arabic; [2]
  absorbance at 405 nm: 0.136
Gum arabic; [3]
  absorbance at 405 nm: 0.347
Gum arabic; [4]
  absorbance at 405 nm: 0.906
Gum arabic; [5]
  absorbance at 405 nm: 1.427
Gum arabic; [6]
  absorbance at 405 nm: 0.074
Potato lectin (Sigma)
  absorbance at 405 nm: 4

B8: VHH7C2: plant-binding VHH, listed among SEQ ID NO:1-42 (protein, listed as Lama glama)
VHH: QVQLQESGGGLVQPGGSLRLSCAAFGFALANYGIGWFRQAPGKDRERVSCDSVDDGSTHYSNSVQGRFTIIRDNAKNTVFLQMNSLKAEDTAVYYCATTDCDATTWGTWINYRGQGTQVTVSS
modifications: 7C2
Gum arabic; [1]
  absorbance at 405 nm: 0.088
Gum arabic; [2]
  absorbance at 405 nm: 0.092
Gum arabic; [3]
  absorbance at 405 nm: 0.090
Gum arabic; [4]
  absorbance at 405 nm: 0.194
Gum arabic; [5]
  absorbance at 405 nm: 0.461
Gum arabic; [6]
  absorbance at 405 nm: 0.077
